Data published in patent US20250011448A1 (STAIDSON BIOPHARMA, published 2025).
Changes are numbered by the printed parent chain.

B1: 15H10 chimeric anti-TNFR2 antibody (antibody, V domains shown)
VH: DVQLQESGPGLVTPSQSLSLTCSVTGYSITSGYYWNWIRQFPGNKLEWMGYITYDGNNNYNPSLKSRFSITRDTSKNQFFLKLNSVTSEDTATYYCARGDYGDSAMDYWGQGTSVTVSS
VL: EIVLTQSPAITAASLGQKVTITCSASSGVNYMHWYQQKSGTSPKPWIYEISKLASGVPARFSGSGSGTSYSLTISSMEAEDAAIYYCQQWNYPLITFGAGTKVELK
notes: Chimeric: mouse variable domains with human constant regions, made as recombinant IgG1
B2: 11C1 chimeric anti-TNFR2 antibody (antibody, V domains shown)
VH: B1 VH with Q5R, F41I, N61D, S66N, F68I, K82T
VL: B1 VL with G28S, N30S, T73I, V103L
notes: as for B1
B3: 29G3 chimeric anti-TNFR2 antibody (antibody, V domains shown)
VH: EVMLVESGGASVKPGGSLKLSCAASGFTFSNFAMSWVRQTPEKRLEWVATIRSGDNYSYYSDNVKGRFTISRDNARNTLYLQMSSLRSKDTSIYYCARNWDKVFDYWGQGTTLTVSS
VL: DIVLTQSPASLAVSLGQRATISCRASESVDSYGYSFMHWYQQKPGQPPKLLIYRASNLKSGIPARFSGSGSRTDFTLTINPVEADDVATYYCQQSNEDHTFGGGTKLEIK
notes: as for B1
B4: 85G8.4 chimeric anti-TNFR2 antibody (antibody, V domains shown)
VH: EVQLQQSGPELVKPGASVKISCKTSGYTFTDFNMDWVKQSHGKSLEWIGYINPNNGDAAYNQKFKSKATLTVDKSSNTAYMELHSLTSDDSAVYYCARWGWAFAYWGQGTLVTVSA
VL: DIVMTQSHKIMSTSVGDRVSITCKASQDVKTAVAWYQQKPGQSPKLLIYATSYRYTGVPDRFTGSGSGTDFTFTISTVQAEDLAVYYCQQHYSIPYTFGGGTKLEIK
notes: as for B1

The binders below were run against T1, human TNFR2 extracellular domain with C-terminal 10×His tag (human, UniProt P20333 23-257) (assay: BLI (Octet RED96), antibody captured on AHC biosensor, His-tagged TNFR2 in solution, 1:1 model).
T1 construct: also called huTNFR2-His; His-tag-huTNFR2
T1 sequence: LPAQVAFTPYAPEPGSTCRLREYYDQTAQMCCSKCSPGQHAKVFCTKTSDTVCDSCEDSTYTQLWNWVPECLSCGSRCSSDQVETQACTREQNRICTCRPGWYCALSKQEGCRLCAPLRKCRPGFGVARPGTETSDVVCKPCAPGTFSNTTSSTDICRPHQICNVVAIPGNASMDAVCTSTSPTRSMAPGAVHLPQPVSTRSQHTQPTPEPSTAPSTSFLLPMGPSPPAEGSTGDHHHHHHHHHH

Row | Binder | Kd | koff | kon
1 | B1 | 0.453 nM | 2.58e-05 s⁻¹ | 57100 M⁻¹ s⁻¹
2 | B2 | 2.46 nM | 0.000258 s⁻¹ | 105000 M⁻¹ s⁻¹
3 | B3 | 4.53 nM | 0.00114 s⁻¹ | 251000 M⁻¹ s⁻¹
4 | B4 | 1.95 nM | 0.000251 s⁻¹ | 129000 M⁻¹ s⁻¹
